Biological target: NC-RLuc (HIV-1 nucleocapsid fused to Renilla luciferase), expressed in HeLa cells (HIV-1)
Assay: proximity ligation

Staufen1-YFP (from UniProt O95793-2 1-496) (natural protein)
PLA spots per cell (spots per cell): 103

Source: article PMC5769749
